Results from patent US20250270315A1.
Like-named read-outs stand apart in the source and are kept apart here.

T1: C57BL/6 mouse SIRPα ECD recombinant protein (6×His tagged) (C57BL/6 mouse) (UniProt P97797)
T1 sequence (looked up): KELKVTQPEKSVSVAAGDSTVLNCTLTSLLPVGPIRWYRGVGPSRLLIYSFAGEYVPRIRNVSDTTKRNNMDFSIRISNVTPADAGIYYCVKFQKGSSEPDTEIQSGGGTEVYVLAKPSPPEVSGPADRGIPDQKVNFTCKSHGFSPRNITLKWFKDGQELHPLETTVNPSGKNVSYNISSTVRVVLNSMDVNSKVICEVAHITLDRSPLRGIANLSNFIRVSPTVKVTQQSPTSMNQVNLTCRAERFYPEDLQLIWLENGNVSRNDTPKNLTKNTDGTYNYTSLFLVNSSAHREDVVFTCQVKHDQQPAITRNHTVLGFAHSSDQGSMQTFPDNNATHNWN

B1: 025c (antibody, V domains shown)
VH: EVQLQQSGAELVKPGASVKLSCTASGFNIKDYYMHWVKQRTEQGLEWIGRIDPEDGETKYAPKFQGKATITADTSSNTAYLQLSSLTSEDTAVYYCDRGLAYWGQGTLVTVSA
VL: QIVLTQSPAIMSASPGEKVTLTCSASSSVSSSYLYWYQQKPGSSPKLWIYSTSNLASGVPARFSGSGSGTSYSLTISSMEAEDAASYFCHQWSSYPYTFGGGTKLEIK
B2: hu1H9G4 (antibody, V domains shown)
VH: QVQLVQSGAEVKKPGASVKVSCKASGYTFTSYWITWVKQAPGQGLEWIGDIYPGSGSTNHIEKFKSKATLTVDTSISTAYMELSRLRSDDTAVYYCATGYGSSYGYFDYWGQGTLVTVSS
VL: DIQMTQSPSSLSASVGDRVTITCRASENIYSYLAWYQQKPGKAPKLLIYTAKTLAEGVPSRFSGSGSGTDFTLTISSLQPEDFATYYCQHQYGPPFTFGQGTKLELK

What was measured:
[1] = molecular target: human SIRPα v2 expressed on cells (CHOK1 stable line KYinno KC-1720) (human) (UniProt P78324); assay: FACS, CHOK1-hSIRPα v2 cells
[2] = molecular target: human SIRPα v2 expressed on cells (CHOK1 stable line KYinno KC-1720) (human) (UniProt P78324); assay: FACS, CHOK1-hSIRPα v2 cells; remark: listed apart in the source
[3] = molecular target: cyno SIRPα stably expressed on CHOK1 cells (cyno); assay: FACS, CHOK1-Cyno SIRPα cells
[4] = molecular target: Human SIRPα v2 (antigen of the Octet and Biacore affinity measurements) (human) (UniProt P78324); assay: BLI (Octet), 1:1 binding model
[5] = molecular target: Human SIRPα v2 (antigen of the Octet and Biacore affinity measurements) (human) (UniProt P78324); assay: SPR (Biacore), 1:1 binding model
[6] = molecular target: human SIRPα v2 expressed on cells (CHOK1 stable line KYinno KC-1720) (human) (UniProt P78324); assay: FACS, CHOK1 cells stably expressing human SIRPα v2
[7] = molecular target: human SIRPα v2 expressed on cells (CHOK1 stable line KYinno KC-1720) (human) (UniProt P78324); assay: competitive FACS, mFc-CD47 ECD on CHOK1-human SIRPα v2 cells
[8] = molecular target: T1, C57BL/6 mouse SIRPα ECD recombinant protein (6×His tagged) (C57BL/6 mouse); assay: ELISA, C57BL/6 mouse SIRPα ECD

EC50 [1] [nM] | TOP MFI [1] [MFI] | EC50 [2] [nM] | TOP MFI [2] [MFI] | EC50 [3] [nM] | TOP MFI [3] [MFI] | Kd [4] [nM] | koff [4] [s⁻¹] | kon [4] [M⁻¹ s⁻¹] | Kd [5] [nM] | koff [5] [s⁻¹] | kon [5] [M⁻¹ s⁻¹] | EC50 (read off the curve) [6] [nM] | IC50 [7] [nM] | TOP blocking (%) [7] [%] | OD450 at 100 nM [8] [OD450] | Binder
1.34 | 51600 | 0.99 | 53000 | 0.69 | 30800 | 2.67 | 0.00293 | 1.1e+06 | 1.69 | 0.00254 | 1.51e+06 | 1 | 0.63 | 99.7 | – | B1
0.85 | 18700 | – | – | 0.72 | 14900 | – | – | – | – | – | – | – | 5.61 | 98.7 | 0.23 | B2
